Measured values taken from patent publication US20200002415A1 (published 2020).

T1: Recombinant FcγRIIA-131H/H allotype (generated at MedImmune) (human, UniProt P12318 34-217, limits assumed)
T1 construct: ELISA coating protein; also called human FcγRIIA; CD32A
T1 sequence: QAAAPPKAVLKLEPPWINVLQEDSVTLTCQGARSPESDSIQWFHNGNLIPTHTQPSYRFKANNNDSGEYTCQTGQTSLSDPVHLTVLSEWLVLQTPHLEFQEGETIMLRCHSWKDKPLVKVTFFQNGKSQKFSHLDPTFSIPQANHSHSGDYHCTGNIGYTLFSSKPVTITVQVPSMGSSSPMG

T2: human FcγRIIA 131R on blood cells of 131R/R donors (human, UniProt P12318 34-317)
T2 chain: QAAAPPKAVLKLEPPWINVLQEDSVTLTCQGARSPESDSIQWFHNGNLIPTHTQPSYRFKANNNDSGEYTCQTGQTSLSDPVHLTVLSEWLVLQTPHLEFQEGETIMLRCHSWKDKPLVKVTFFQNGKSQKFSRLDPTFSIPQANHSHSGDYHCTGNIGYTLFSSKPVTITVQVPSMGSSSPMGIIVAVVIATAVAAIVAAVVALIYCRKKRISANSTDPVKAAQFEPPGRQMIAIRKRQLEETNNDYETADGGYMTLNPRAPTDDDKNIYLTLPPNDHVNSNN

B1: 32LO0350 (antibody, human IgG1, V domains shown)
VH: QVQLVQSGAEVKKPGASVKVSCKASGYTFTNYGMNWVRQAPGQRLEWMGWLNTYTGESWYPDDFKGRVTITRDTSASTAYMELSSLRSEDTAVYYCARGDYGYDDPLDYWGQGTLVTVSS
VL: DIVMTQSPLSLPVTPGEPASISCRSSKSLLHTNRNTYLHWFLQKPGQSPQLLIYRMSVLASGVPDRFSGSGSGTDFTLKISRVEAEDVGVYYCMQHLEYPLTFGQGTKLEIK
notes: expressed as human IgG1-TM with human kappa light chain; also called optimized IV.3 clone 32LO0350
B2: 32LO0354 (antibody, human IgG1, V domains shown)
VH: QVQLVQSGAEVKKPGASVKVSCKASGYTFTNYGMNWVRQAPGQRLEWMGWLNTYTGESYYPDDFKGRVTITRDTSASTAYMELSSLRSEDTAVYYCARGDYGYDDPLDYWGQGTLVTVSS
VL: DIVMTQSPLSLPVTPGEPASISCRSSKSLLHTNRNTYLHWFLQKPGQSPQLLIYRMSVLASGVPDRFSGSGSGTDFTLKISRVEAEDVGVYYCMQHLEYPLTFGQGTKLEIK
notes: expressed as human IgG1-TM with human kappa light chain; also called optimized IV.3 clone 32LO0354
B3: 32LO0355 (antibody, human IgG1, V domains shown)
VH: QVQLVQSGAEVKKPGASVKVSCKASGYTFTNYGMNWVRQAPGQRLEWMGWLNTYTGESWYPDDFKGRVTITRDTSASTAYMELSSLRSEDTAVYYCARGDYGYDDPLDYWGQGTLVTVSS
VL: DIVMTQSPLSLPVTPGEPASISCRSSKSLLHTNKNTYLHWFLQKPGQSPQLLIYRMSVLASGVPDRFSGSGSGTDFTLKISRVEAEDVGVYYCMQHLEYPLTFGQGTKLEIK
notes: expressed as human IgG1-TM with human kappa light chain; also called optimized IV.3 clone 32LO0355
B4: chimeric IV.3 (human IgG1-TM) (antibody, V domains shown)
VH: QIQLVQSGPELKKPGETVKISCKASGYTFTNYGMNWVKQAPGKGLKWMGWLNTYTGESIYPDDFKGRFAFSSETSASTAYLQINNLKNEDMATYFCARGDYGYDDPLDYWGQGTSVTVSS
VL: DIVMTQAAPSVPVTPGESVSISCRSSKSLLHTNGNTYLHWFLQRPGQSPQLLIYRMSVLASGVPDRFSGSGSGTAFTLSISRVEAEDVGVFYCMQHLEYPLTFGAGTKLELK

Key:
[1] = target: T1, Recombinant FcγRIIA-131H/H allotype …; test: ELISA on coated recombinant FcγRIIA-131H/H
Experimental: Plates were washed five times with 200 μl of wash buffer (PBS containing 0.1% Tween 20), blocked with blocking buffer containing 5% milk in PBS for 1 hour at room temperature, and washed five additional times with wash buffer. Three-fold serial dilutions of the test antibody or control antibody (R347-Tm) were added to wells in duplicate. Plates were incubated for 2 hours at room temperature, and washed five times with wash buffer. Binding of the antibodies to the FcγRs was detected by adding 50 μl of goat anti-human Fc-HRP (Jackson ImmunoResearch Laboratories, PA) to the wells and incubating for 1 hour at room temperature, washing 10 times, and adding 50 μl TMB substrate (Pierce Biotechnology, MA). The color reaction was stopped with 50 μl 0.2M […] and the absorbance was measured using a spectrophotometer (Molecular Devices, CA) at […].

[2] = target: T2, human FcγRIIA 131R on blood cells of …; test: cell-based or functional assay

| Binder | binding result [1] | EC50 of FcγRIIA internalization from the monocyte surface, whole blood FACS assay [2] |
| --- | --- | --- |
| B1 | binds | – |
| B2 | binds | – |
| B3 | binds | – |
| B4 | – | 0.2 nM |
